In the assay the target is Full-length human histidine-tagged p300 (human) (UniProt Q09472). Put plainly: cell-based or functional assay.
Sequence of Full-length human histidine-tagged p300 (human) (Q09472 2-2414): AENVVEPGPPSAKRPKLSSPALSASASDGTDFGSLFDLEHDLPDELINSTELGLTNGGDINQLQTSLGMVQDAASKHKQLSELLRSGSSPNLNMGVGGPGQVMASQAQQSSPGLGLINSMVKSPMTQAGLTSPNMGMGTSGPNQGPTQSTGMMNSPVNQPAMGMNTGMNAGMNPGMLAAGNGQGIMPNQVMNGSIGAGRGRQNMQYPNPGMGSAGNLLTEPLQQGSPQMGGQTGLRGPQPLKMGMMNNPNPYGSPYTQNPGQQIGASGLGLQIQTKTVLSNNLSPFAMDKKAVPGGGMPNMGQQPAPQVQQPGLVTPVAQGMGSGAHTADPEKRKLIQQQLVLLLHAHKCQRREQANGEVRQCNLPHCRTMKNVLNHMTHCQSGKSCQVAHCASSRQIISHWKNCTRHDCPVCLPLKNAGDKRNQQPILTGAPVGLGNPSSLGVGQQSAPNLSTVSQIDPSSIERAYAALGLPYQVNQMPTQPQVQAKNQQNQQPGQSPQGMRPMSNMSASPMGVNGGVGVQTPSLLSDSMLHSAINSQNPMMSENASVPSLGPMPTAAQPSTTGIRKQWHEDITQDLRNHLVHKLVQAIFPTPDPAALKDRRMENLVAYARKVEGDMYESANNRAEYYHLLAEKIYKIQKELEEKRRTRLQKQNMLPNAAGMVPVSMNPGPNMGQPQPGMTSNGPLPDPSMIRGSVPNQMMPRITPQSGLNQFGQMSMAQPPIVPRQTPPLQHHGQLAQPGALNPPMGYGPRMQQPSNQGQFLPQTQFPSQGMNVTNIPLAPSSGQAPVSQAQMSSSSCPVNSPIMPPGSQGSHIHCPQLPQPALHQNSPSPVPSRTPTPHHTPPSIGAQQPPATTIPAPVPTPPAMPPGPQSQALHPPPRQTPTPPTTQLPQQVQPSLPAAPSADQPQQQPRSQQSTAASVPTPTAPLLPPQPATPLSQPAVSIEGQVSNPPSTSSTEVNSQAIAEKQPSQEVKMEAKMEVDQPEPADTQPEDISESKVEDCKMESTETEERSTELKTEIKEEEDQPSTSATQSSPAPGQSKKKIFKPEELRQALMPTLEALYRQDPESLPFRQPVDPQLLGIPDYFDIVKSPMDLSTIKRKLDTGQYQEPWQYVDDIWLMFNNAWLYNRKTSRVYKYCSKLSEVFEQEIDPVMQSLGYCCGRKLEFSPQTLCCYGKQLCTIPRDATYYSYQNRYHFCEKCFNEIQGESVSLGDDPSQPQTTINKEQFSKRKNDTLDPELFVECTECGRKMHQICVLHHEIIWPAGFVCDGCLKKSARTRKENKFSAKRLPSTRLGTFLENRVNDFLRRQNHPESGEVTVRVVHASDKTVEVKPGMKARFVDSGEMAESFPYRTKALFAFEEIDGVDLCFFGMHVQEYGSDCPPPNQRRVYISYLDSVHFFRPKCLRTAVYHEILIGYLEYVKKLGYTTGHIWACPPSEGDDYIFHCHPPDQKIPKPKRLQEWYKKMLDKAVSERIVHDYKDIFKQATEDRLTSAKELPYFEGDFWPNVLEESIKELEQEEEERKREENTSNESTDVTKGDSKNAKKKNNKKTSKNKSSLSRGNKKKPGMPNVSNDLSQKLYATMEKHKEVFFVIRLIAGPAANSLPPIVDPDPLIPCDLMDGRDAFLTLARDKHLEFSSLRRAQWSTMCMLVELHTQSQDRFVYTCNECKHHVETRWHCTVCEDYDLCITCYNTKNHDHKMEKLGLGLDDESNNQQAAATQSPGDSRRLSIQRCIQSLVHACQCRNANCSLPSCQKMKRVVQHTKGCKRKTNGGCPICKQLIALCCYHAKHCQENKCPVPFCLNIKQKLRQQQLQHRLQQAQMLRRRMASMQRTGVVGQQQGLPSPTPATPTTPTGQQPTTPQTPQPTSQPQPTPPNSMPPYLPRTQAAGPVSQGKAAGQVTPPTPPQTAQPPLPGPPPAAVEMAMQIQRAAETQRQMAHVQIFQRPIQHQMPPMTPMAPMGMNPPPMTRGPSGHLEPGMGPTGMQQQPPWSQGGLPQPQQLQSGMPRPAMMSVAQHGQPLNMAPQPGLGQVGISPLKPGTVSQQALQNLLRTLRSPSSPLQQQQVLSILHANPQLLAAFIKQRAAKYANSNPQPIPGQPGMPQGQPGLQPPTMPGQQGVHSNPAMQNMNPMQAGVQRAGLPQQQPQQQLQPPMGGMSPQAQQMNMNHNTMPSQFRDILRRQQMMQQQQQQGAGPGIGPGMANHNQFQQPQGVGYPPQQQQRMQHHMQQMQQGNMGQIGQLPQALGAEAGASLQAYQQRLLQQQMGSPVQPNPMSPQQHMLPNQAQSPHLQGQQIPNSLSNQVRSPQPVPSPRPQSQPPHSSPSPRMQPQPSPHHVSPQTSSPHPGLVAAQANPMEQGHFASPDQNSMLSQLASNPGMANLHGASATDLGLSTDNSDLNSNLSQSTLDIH

Take “Full-length human Flag-tagged p53 (native, unacetylated) (from UniProt P04637 1-393)”: the increased acetylation in a distal region 2 kb downstream of the proximal promoter of the p21-LUC plasmid (in vitro chromatin immunoprecipitation with anti-acetyl-H4) worked out at 1.4 fold and the increased acetylation near the 3' p53 binding site of the p21-LUC plasmid (in vitro chromatin immunoprecipitation with anti-acetyl-H4) came out at 3.4 fold.

The record behind these values is US20030228627A1, “Assay for p53 function in cells” (priority 2002, published 2003).
